No end group written: not given here.
Key:
Rin-m cells [1] = experiment: MTT reduction assay; type: cell-based
Method: Rin-m cells (2×10^5 cells/ml) were cultured in 96-well micro plates (100 μl/well) and incubated overnight at 37° C. Human oligomers and rat IAPP was added to each well at various concentrations. Each measurement was repeated four times. Following incubation for 6 hours at 37° C., cell viability was evaluated using 3-(4,5-dimethylthiazolyl-2)-2,5-diphenyltetrazolium bromide (MTT) assay. Briefly, 20 μL of 5 mg/ml MTT dissolved in PBS was added to each well. After 4 hours incubation at 37° C., 100 μl of extraction buffer [20% SDS dissolved in a solution of 50% dimethylformamide and 50% DDW (pH 4.7)] was added to each well, and the plates were incubated again overnight at 37° C. Finally, color intensity was measured using an ELISA plate reader at 570 nm.

Rin-m cells [2] = experiment: Confocal microscopy of cells incubated with labelled oligomers; type: cell-based; details: 5 μM
Method: Rin-m cells were cultured on glass cover slips located in 24-well micro plates, then incubated for different periods with hIAPP-Hiytelfluor 488 (Anaspec, USA) oligomers (5 μM) at 37° C., as described in the cell cytotoxicity experiments section. After incubation cells were washed with PBS buffer and fixed with 4% paraformaldehyde in PBS for 5 minutes and washed with PBS buffer. Cells were treated with 1% Triton x-100 in PBS and stained with 50 μg/ml Phalloidin Tetramethyl-rhodamine B isothiocyanate (Sigma-Aldrich) in PBS 40 minutes in room temperature, followed by extensive wash with PBS buffer. The cells were imaged using LSM 510 confocal laser scanning microscope (Carl Zeiss Jena, Germany).

[3] = Oligomer stability assay (PAGE under non reducing conditions); type: physicochemical; details: dialyzed against PBS buffer, incubated at 37° C.
Method: FIGS. 1A-E are graphs and photographs illustrating characterization of human IAPP oligomers. (FIG. 1A) PAGE analysis under non-reducing conditions of human IAPP oligomers and a negative control of non amyloidogenic rat IAPP (I-monomer, II-dimer and III-trimer). (FIG. 1B) Oligomer stability assay, hIAPP oligomers were dialyzed against PBS buffer and incubated at 37° C. Oligomer association/disassociation was monitored by PAGE analysis under non reducing conditions. (FIG. 1C) Size exclusion chromatography (Superdex 75 10/300, PBS buffer pH 7.4) of hIAPP oligomers; I-monomer, […], III-trimer and IV-90 kDa oligomer. (FIG. 1D) Transmittance electron microscopy (TEM) and atomic force microscopy (AFM) images of the ˜90 kDa oligomers, TEM scale bar 100 nm, AFM scale bar 600 nm. (FIG. 1E) CD spectroscopy of hIAPP and rIAPP, protein concentration of 5 μM. Each spectrum represents the average of three measurements.
IAPP synthetic peptide (Human; H-7905, Bachem, Bubendorf, Switzerland. Rat; 74-5-10A, American peptide, California, U.S.A) was suspended in 100% 1,1,1,3,3,3 hexafluoro-2-propanol (HFIP) at 1 mg/ml and incubated for complete solubilization under shaking (100 rpm) at 37° C. for 2 hours. […] IAPP self-assembly products were analyzed by 15% Tris-tricine PAGE and stained with Imperial protein stain. […]

Rin-m cells [4] = experiment: Flow cytometry cell sorting (FACS) assay, Annexin V-FITC apoptosis detection; type: cell-based; details: 0.5 μM, 1 μM and 5 μM
Method: Rin-m cells (5×10^5 cells/ml) were cultured for 4 hours at 37° C. incubated with human IAPP oligomers (final concentration of 0.5 μM, 1 μM and 5 μM). Samples were washed with PBS buffer and resuspended with 500 μl binding buffer. 5 μl of Annexin V-FITC and 10 μl of propidium iodide (Annexin V-FITC apoptosis detection kit; MBL) was added to the samples. After 10 minutes of incubation in the dark at RT, samples were analyzed using the FACS Sort (Beckton Dickinson) and results analyzed using the CellQuest program (Beckton Dickinson). Each measurement was repeated three times. FL1-H represents the fluorescence of V-FITC and FL2-H represents the fluorescence of […].

[5] = pancreatic RIN-m cells, 100 nM-10 μM, 6 hours

| Molecule | cell viability (MTT reduction) (Rin-m cells [1]; [5]) | cell morphology (confocal) (Rin-m cells [2]; after eight hours) | cell numbers (confocal) (Rin-m cells [2]; after four hours, insertion of oligomers to the cytoplasm) | interaction of oligomers with cells (confocal) (Rin-m cells [2]; after one hour) | oligomer stability (no disassembly or further polymerization to fibrils) [3] | oligomer stability (no disassembly or further polymerization to fibrils) ([3]; listed as oligomeric structures) | cell viability (MTT reduction) (Rin-m cells [1]; pancreatic cells, 5 μM oligomers) | correlation of oligomer concentration with percentage of apoptotic cells (Rin-m cells [4]) | cell state (apoptosis) by FACS (Rin-m cells [4]; 4 hours) |
| --- | --- | --- | --- | --- | --- | --- | --- | --- | --- |
| rIAPP: non amyloidogenic rat IAPP synthetic peptide, negative control, treated in the same manner [reference compound] | showed no such effect | – | – | – | – | – | – | – | – |
| hIAPP-Hiytelfluor 488 oligomers: oligomers of fluorescently labelled hIAPP-Hiytelfluor 488 (Anaspec) (KCNTATCATQRLANFLVHSSNNFGAILSSTNVGSNTY; not fully specified (C-terminus, bridges); cysteine pairing not given here; also: HiLyte Fluor 488 label, position not given here, oligomers; UniProt P10997 34-70, looked up) | – | Dramatic cell morphology changes | massive decline in cell numbers | intensive localization of the oligomers to the cell membrane | – | – | – | – | – |
| hIAPP oligomers: isolated stable oligomers (dimers, trimers, ~90 kDa) of synthetic human islet amyloid polypeptide prepared with HFIP, NaOH and SDS (peptide) peptide: MGILKLQVFLIVLSVALNHLKATPIESHQVEKRKCNTATCATQRLANFLVHSSNNFGAILSSTNVGSNTYGKRNAVEVLKREPLNYLPL | dose dependent decrease in cell viability | – | – | – | up to 7 days | stable for up to seven days | reduced dramatically | clear and strong correlation | mostly in the early and late apoptotic phase |

Reference: patent publication US9624285B2, “Methods of treating diabetes and compositions capable of same” (Ramot a Tel-Aviv University Ltd., priority 2010, dated 2017)
